Starred links: 1 amine or outer side, 2 acyl side, 3 side chain; linkers in the order of their positions; H or OH if unused. Positions of bridges follow the written chain, without caps; N, C: chain ends. Non-standard residues stand in square brackets, D forms with d. Primed or numbered codes have the meaning given here. SeN″ = (S)-5-(((allyloxy)carbonyl)(methyl)amino)-2-amino-2-methylpentanoic acid (stapling residue), C=CCOC(=O)N(C)CCC[C@](C)(N[*:1])C(=O)[*:2]; B5(16) = 2-amino-2-(pent-4-en-1-yl)hept-6-enoic acid = 2,2-bis(4-pentenyl)glycine (stitching residue), C=CCCCC(CCCC=C)(N[*:1])C(=O)[*:2]; B5(23) = 2-amino-2-(pent-4-en-1-yl)hept-6-enoic acid (2,2-bis(4-pentenyl)glycine), stitching residue, C=CCCCC(CCCC=C)(N[*:1])C(=O)[*:2]; B5(4) = 2,2-bis(4-pentenyl)glycine = 2-amino-2-(pent-4-en-1-yl)hept-6-enoic acid (stitching residue), C=CCCCC(CCCC=C)(N[*:1])C(=O)[*:2]; B5″ = 2,2-bis(4-pentenyl)glycine, stitching residue, C=CCCCC(CCCC=C)(N[*:1])C(=O)[*:2]; Phe(3-F) = N[C@@H](Cc1cccc(F)c1)C(=O)O; Bta = N[C@@H](Cc1csc2ccccc12)C(=O)O; αAllylPro = C=CC[C@@]1(C(=O)O)CCCN1; S8 = C=CCCCCCC[C@](C)(N)C(=O)O; NMeS = CN[C@@H](CO)C(=O)O
B1: I-397 (peptide)
peptide: XDAXDHAAFVXFXQ
modifications: not fully specified; as printed: Ac-PL3-Asp-Ala-B5-Asp-His-Ala-Ala-Phe-Val-S8-3FF-BztA-Gln-NH2; N-terminal acetyl, C-terminal amide; staples PL3(1)-B5(4) and B5(4)-S8(11) by olefin metathesis
notes: Stapled (stitched) peptide
B2: I-399 (peptide)
peptide: XDAXDHAAFQXFXQ
modifications: not fully specified; as printed: Ac-PL3-Asp-Ala-B5-Asp-His-Ala-Ala-Phe-Gln-S8-3FF-BztA-Gln-NH2; N-terminal acetyl, C-terminal amide; staples PL3(1)-B5(4) and B5(4)-S8(11) by olefin metathesis
notes: Stapled (stitched) peptide
B3: I-398 (peptide)
peptide: Ac-[αAllylPro]DA[B5(16)]DHAAFV[SeN″][Phe(3-F)][Bta]Q-NH2
modifications: staple 1-4, 4-11; not fully specified; printed as Ac-PL3-Asp-Ala-B5-Asp-His-Ala-Ala-Phe-Val-SeN-3FF-BztA-Gln-NH2
notes: Stapled (stitched) peptide
B4: I-759 (peptide)
peptide: Ac-[αAllylPro]DL[B5(4)]DEAAFN[S8]F[Bta][NMeS]-NH2
modifications: staple 1-4, 4-11; also: earlier eluting HPLC peak (staple isomer)
notes: Stapled peptide; same description as I-760, earlier eluting HPLC peak (staple isomer composition); also called Ac-PL3-Asp-Leu-B5-Asp-Glu-Ala-Ala-Phe-Asn-S8-Phe-BztA-NMeS-NH2
B5: I-751 (peptide)
peptide: Ac-[αAllylPro]DL[B5(4)]DEAAFN[S8]F[Bta]S-NH2
modifications: staple 1-4, 4-11; also: olefin E/Z not assigned, later-eluting staple isomer
notes: Stapled peptide; shares its description with I-750, later eluting HPLC peak (staple isomer composition); also called Ac-PL3-Asp-Leu-B5-Asp-Glu-Ala-Ala-Phe-Asn-S8-Phe-BztA-Ser-NH2
B6: I-754 (peptide)
peptide: XDLXDEAAFNXFXT
modifications: not fully specified; Ac-PL3-Asp-Leu-B5-Asp-Glu-Ala-Ala-Phe-Asn-S8-Phe-BztA-dThr-NH2: N-terminal acetyl; C-terminal amide; PL3 at 1, B5 at 4, S8 at 11 (stapled 1-4 and 4-11 by olefin metathesis); BztA at 13; D-Thr at 14
notes: Stapled peptide; also called Ac-PL3-Asp-Leu-B5-Asp-Glu-Ala-Ala-Phe-Asn-S8-Phe-BztA-dThr-NH2
B7: I-755 (peptide)
peptide: Ac-[αAllylPro]DL[B5(4)]DEAAFN[S8]F[Bta][dT]-NH2
modifications: staple 1-4, 4-11; also: later eluting HPLC peak (staple isomer)
notes: as for B6
B8: I-752 (peptide)
peptide: Ac-[αAllylPro]DL[B5(4)]DEAAFN[S8]F[Bta]N-NH2
modifications: staple 1-4, 4-11; also: olefin E/Z not assigned, earlier-eluting staple isomer
notes: Stapled peptide; also called Ac-PL3-Asp-Leu-B5-Asp-Glu-Ala-Ala-Phe-Asn-S8-Phe-BztA-Asn-NH2
B9: I-753 (peptide)
peptide: Ac-[αAllylPro]DL[B5(4)]DEAAFN[S8]F[Bta]N-NH2
modifications: staple 1-4, 4-11; also: olefin E/Z not assigned, later-eluting staple isomer
notes: as for B8
B10: I-757 (peptide)
peptide: Ac-[αAllylPro]DL[B5(4)]DEAAFN[S8]F[Bta][dN]-NH2
modifications: staple 1-4, 4-11; also: earlier eluting HPLC peak (staple isomer)
notes: Stapled peptide; same description as I-758, earlier eluting HPLC peak (staple isomer composition); also called Ac-PL3-Asp-Leu-B5-Asp-Glu-Ala-Ala-Phe-Asn-S8-Phe-BztA-dAsn-NH2
B11: I-758 (peptide)
peptide: Ac-[αAllylPro]DL[B5(4)]DEAAFN[S8]F[Bta][dN]-NH2
modifications: staple 1-4, 4-11; also: later eluting HPLC peak (staple isomer)
notes: Stapled peptide; also called Ac-PL3-Asp-Leu-B5-Asp-Glu-Ala-Ala-Phe-Asn-S8-Phe-BztA-dAsn-NH2
B12: I-760 (peptide)
peptide: Ac-[αAllylPro]DL[B5″]DEAAFN[S8]F[Bta][NMeS]-NH2
modifications: staple 1-4, 4-11
notes: Stapled peptide; also called Ac-PL3-Asp-Leu-B5-Asp-Glu-Ala-Ala-Phe-Asn-S8-Phe-BztA-NMeS-NH2

Target: T1, full-length beta-Catenin (Uniprot ID P35222) (Homo sapiens (Human), UniProt P35222 2-781)
T1 construct: also called bCat; B-Catenin
T1 sequence: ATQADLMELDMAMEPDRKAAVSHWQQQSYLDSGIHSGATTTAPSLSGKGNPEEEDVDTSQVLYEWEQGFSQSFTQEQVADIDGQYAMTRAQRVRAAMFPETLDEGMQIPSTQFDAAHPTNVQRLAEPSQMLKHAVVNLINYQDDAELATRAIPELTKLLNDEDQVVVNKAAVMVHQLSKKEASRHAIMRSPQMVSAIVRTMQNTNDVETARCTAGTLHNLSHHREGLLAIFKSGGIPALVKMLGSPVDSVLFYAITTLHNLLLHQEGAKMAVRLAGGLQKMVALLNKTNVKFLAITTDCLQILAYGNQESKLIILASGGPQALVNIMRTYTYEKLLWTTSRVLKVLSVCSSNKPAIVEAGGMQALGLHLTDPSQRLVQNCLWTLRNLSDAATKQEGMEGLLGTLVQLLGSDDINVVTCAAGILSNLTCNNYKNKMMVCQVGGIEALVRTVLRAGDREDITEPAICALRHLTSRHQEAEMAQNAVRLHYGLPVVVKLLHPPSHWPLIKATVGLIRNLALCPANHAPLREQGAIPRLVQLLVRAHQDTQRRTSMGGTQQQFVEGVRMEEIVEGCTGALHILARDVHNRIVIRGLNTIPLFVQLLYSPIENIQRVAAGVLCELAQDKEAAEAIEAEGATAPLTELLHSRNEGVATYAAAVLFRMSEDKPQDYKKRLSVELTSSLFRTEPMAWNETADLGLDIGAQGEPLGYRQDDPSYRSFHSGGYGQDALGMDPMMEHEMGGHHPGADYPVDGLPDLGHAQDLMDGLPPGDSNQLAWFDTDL
Assay: fluorescence polarization competition; 10 nM full-length beta-catenin + 10 nM 5FAM-TCF4(10-53) probe, peptide titrated
Procedure: (§1) The plate was incubated protected from light for 60 minutes at 20° C. prior to read. Reads were performed on a CLARIOstar plate reader (BMG Labtech) in duplicate, and data were fitted to a 1:1 binding model with hill slope using an in-house script. All provided concentrations are final concentrations.

| Binder | EC50 |
| --- | --- |
| Ac-[αAllylPro]DA[B5(23)]DEAAFQ[S8]F[Bta]Q-NH2 (staple 1-4, 4-11, Stapled (stitched) peptide) [I-406] | 94 nM |
| B1 | 2230 nM |
| B2 | 2500 nM |
| B3 | 2160 nM |

Target: T2, full-length beta-Catenin (Uniprot ID P35222) (Homo sapiens (Human), UniProt P35222 1-781)
T2 construct: also called bCat; B-Catenin
T2 sequence: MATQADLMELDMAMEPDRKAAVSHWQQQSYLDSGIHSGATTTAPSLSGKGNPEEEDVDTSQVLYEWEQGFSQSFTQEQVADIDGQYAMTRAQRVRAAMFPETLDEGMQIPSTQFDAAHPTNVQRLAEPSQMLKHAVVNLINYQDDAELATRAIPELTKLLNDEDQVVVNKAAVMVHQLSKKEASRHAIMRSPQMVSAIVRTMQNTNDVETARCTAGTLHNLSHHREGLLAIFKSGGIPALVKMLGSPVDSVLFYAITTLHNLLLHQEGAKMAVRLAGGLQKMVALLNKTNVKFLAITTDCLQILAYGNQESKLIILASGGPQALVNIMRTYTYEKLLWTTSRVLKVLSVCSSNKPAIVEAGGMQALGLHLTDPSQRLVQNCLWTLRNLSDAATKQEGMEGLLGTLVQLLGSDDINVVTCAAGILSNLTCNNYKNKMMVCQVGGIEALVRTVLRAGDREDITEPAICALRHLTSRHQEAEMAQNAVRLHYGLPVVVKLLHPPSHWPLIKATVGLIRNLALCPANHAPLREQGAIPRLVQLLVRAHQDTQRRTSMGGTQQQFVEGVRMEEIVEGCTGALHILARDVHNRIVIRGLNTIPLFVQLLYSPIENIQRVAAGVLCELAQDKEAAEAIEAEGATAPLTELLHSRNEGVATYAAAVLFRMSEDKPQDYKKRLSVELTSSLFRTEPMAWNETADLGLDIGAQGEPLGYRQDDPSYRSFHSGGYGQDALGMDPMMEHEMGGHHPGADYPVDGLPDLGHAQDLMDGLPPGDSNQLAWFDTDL
Assay: fluorescence polarization competition; full-length beta-catenin with 5FAM-TCF4(10-53) probe as competitor
Procedure: as §1

| Binder | IC50 |
| --- | --- |
| B4 | 1530 nM |
| B5 | 29 nM |
| B6 | 115 nM |
| B7 | 88 nM |
| B8 | 16 nM |
| B9 | 14 nM |
| B10 | 64 nM |
| B11 | 47 nM |
| B12 | 608 nM |

Target: T3, B-cat-Halo (NanoBRET construct expressed in HEK293 cells) (UniProt P35222 1-781, HaloTag NanoBRET 618 Ligand bound in the assay)
T3 sequence (looked up): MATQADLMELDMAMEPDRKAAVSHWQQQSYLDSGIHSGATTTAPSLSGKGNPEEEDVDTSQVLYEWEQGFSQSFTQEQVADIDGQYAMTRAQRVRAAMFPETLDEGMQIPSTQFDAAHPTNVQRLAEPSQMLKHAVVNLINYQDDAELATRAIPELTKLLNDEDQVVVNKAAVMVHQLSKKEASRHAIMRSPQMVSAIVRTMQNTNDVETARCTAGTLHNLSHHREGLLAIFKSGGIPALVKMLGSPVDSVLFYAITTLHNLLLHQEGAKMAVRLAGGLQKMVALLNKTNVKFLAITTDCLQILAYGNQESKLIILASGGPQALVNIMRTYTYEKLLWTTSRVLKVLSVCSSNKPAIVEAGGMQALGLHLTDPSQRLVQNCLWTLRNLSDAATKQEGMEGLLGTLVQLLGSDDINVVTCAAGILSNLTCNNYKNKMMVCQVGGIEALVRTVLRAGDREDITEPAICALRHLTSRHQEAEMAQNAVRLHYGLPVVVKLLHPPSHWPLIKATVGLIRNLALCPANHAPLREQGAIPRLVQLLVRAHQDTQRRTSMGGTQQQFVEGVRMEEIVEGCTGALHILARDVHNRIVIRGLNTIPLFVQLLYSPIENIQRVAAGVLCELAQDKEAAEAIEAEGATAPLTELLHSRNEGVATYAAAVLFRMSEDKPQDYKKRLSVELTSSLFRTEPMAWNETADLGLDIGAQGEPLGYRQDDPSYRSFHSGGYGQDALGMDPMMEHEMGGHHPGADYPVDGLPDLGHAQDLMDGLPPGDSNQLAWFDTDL
Assay: cell-based or functional assay

| Binder | NanoBRET Abs IC50 |
| --- | --- |
| B5 | 7100 nM |
| B8 | 9900 nM |
| B9 | 10000 nM |
